These results are taken from patent US12649778.

Where a chain is given by its changes, count along the chain named. Numbers in names are those of the source. Where “and” joins values, the source holds several entries; their conditions need not be identical. Identical values can stand only once.

The labels stand for the following.
B1: 65D3 chimeric Fab, NNK library L8 mutant N to H (VL N30H) (Fab, V domains shown)
VH: QSLEESGGRLVTPGGSLTLTCTVSGFSLSTHDISWVRQAPGKGLEWIGVIARRGSTYYASWAKGRFTISKTSTTVDLKITSPTIEDTATYFCAREEFDFWGQGTLVTVSS
VL: AVLTQTASPVSAAVGGTVTISCQSSQSVYHNKELSWFQQKPGQPPKLLISYASTLASGVPSRFKGSGSGTQFTLTISDLECDDAATYYCLGGYASTIDMWAFGGGTEVVVK
B2: 65D3 chimeric Fab, NNK library L2 mutant S to G (VL S24G) (Fab, V domains shown)
VH: B1 VH
VL: B1 VL with S24G, H30N
B3: 65D3 chimeric Fab, NNK library L18 mutant L to N (VL L55N) (Fab, V domains shown)
VH: B1 VH
VL: B1 VL with H30N, L55N
B4: 65D3 chimeric Fab, NNK library L2 mutant S to T (VL S24T) (Fab, V domains shown)
VH: B1 VH
VL: B1 VL with S24T, H30N
B5: 65D3 chimeric Fab, NNK library L2 mutant S to M (VL S24M) (Fab, V domains shown)
VH: B1 VH
VL: B1 VL with S24M, H30N
B6: 65D3 chimeric Fab, NNK library L18 mutant L to S (VL L55S) (Fab, V domains shown)
VH: B1 VH
VL: B1 VL with H30N, L55S
B7: 65D3 chimeric Fab, NNK library H25 mutant K to R (VH K63R) (Fab, V domains shown)
VH: B1 VH with K63R
VL: B1 VL with H30N
B8: 65D3 chimeric Fab, NNK library L20 mutant S to H (VL S57H) (Fab, V domains shown)
VH: B1 VH
VL: B1 VL with H30N, S57H
B9: Antibody 74D3-1 (antibody, V domains shown)
VH: QSVEESGGRLVTPGTPLTLTCTVSGIDLSNNAMGWVRQAPGEGLEWIGTIYASGNTYYASWAKGRFAISKTSTTVDLKMTSLTAADTATYFCARLFNIWGPGTLVTVSS
VL: ADIVLTQSPASVSSAVGGTVTINCQASQSVYDNKNLSWFQQKPGQPPKQLIYAASTLASGVPSRFKGSGSGTQFTLTISGMQCDDAATYYCGGRDSGNIYDFGGGTEVVVK

The target in one assay is Peptide 1593 (…) (Mycobacterium tuberculosis). Briefly: ELISA, NNK clone supernatant on coated peptide (22 hits). A general note: In an ELISA, binding on a coated surface is turned into a signal by an enzyme label.
Take B1: the OD450 nm was 0.957 OD450 and the ratio (OD450 to WT OD450) is 1.26 fold of WT.
The like results for B2 were, in that order, 1.11 OD450 and 1.33 fold of WT.
With B3, the OD450 nm was determined as 0.937 OD450 and the ratio (OD450 to WT OD450) is 1.26 fold of WT.
Take B4: the OD450 nm was 1.07 OD450 and the ratio (OD450 to WT OD450) is 1.29 fold of WT.
The matching figures for B5: 1.09 OD450 and 1.31 fold of WT.
The matching figures for B6: 0.968 OD450 and 1.3 fold of WT.
As for B7, the OD450 nm was 0.872 OD450 and the ratio (OD450 to WT OD450) is 1.4 fold of WT.
Turning to B8, the OD450 nm amounted to 0.596 OD450 and the ratio (OD450 to WT OD450) is 1.25 fold of WT.

Another assay concerns the target Peptide 2004 (…) (Mycobacterium tuberculosis).
Assay: not given
The molecule B9 registered a rank by relative ELISA signal across the dilution series (1 = highest) of 9.

A further assay concerns the target Peptide 1593 (…) (Mycobacterium tuberculosis). Description: ELISA, NNK clone supernatant on coated peptide.
As to B1, the OD450 nm is 1.02 OD450 and 0.957 OD450; the ratio (OD450 to WT OD450) was 1.34 fold of WT and 1.25 fold of WT.
For B2, the OD450 nm was 1.02 OD450 and 1.11 OD450; the ratio (OD450 to WT OD450) was 1.23 fold of WT and 1.33 fold of WT.
As for B3, the OD450 nm came to 0.937 OD450 and the ratio (OD450 to WT OD450) was 1.26 fold of WT.
Consider B4, for which the OD450 nm was 1.01 OD450 and 1.07 OD450; the ratio (OD450 to WT OD450) was 1.21 fold of WT and 1.29 fold of WT.
Regarding B5, the OD450 nm was 1.15 OD450 and 1.09 OD450; the ratio (OD450 to WT OD450) is 1.38 fold of WT and 1.31 fold of WT.
As to B6, the OD450 nm turned out to be 0.968 OD450 and the ratio (OD450 to WT OD450) is 1.3 fold of WT.
With B7, the OD450 nm worked out at 0.872 OD450 and the ratio (OD450 to WT OD450) was 1.4 fold of WT.
The like results for B8 were, in that order, 0.596 OD450 and 1.25 fold of WT.
